Results published in the RNAGym collection of RNA variant scans (doi:10.7554/elife.90254).

B1: LINE1-full (parent)
chain: UACGUAGGUGGUUUUCCCCUGAUAGUGCUAAGGGGGCCUGGAAGUUUGGACUGGGCAGAGCUCAACACAGCGUGGCAAAGUGGCUGUGGCUAGACUGCCUCUCUGGAUUCCUCGUCACUCAGCAGGGCAUCUCUGAGAGAAAUGCC

Variants of: B1
Assay: self-cleavage, relative activity (ratio to wild type); higher = more cleavage; in vitro, sequencing; the parent is a self-cleaving ribozyme

Row | Variant | self-cleavage
1 | C56U A138U | 0.1
2 | G53A A136G | 1.71
3 | A79G U143A | 1.52
4 | C84U A138G | 0.13
5 | A57G G139U | 0.48
6 | U29C C111A | 1.24
7 | A64G U102C | 0.34
8 | C61U G105A | 0.02
9 | A42U A64G | 0.14
10 | G25U U45G | 0.93
11 | U96A G126A | 0.07
12 | G21U U134A | 1.27
13 | U73C G105A | 2.03
14 | U39G A142G | 0.77
15 | A6U A124U | 1.51
16 | U87C U108C | 0.24
17 | C66A A141G | 0.04
18 | G36C A121G | 1.39
19 | U73G U143C | 2.02
20 | U39A U85G | 0.28
21 | A77U A136C | 1.67
22 | A65C G97A | 0.04
23 | G80A A107G | 2.12
24 | U15C C76A | 1.2

Row | Variant | self-cleavage
25 | U91C U112C | 0.59
26 | U12G U45C | 1.48
27 | A43U A124G | 0.71
28 | A78G U143C | 1.18
29 | U134A A140G | 0.53
30 | U23C U143A | 1.28
31 | A94G C146U | 0.47
32 | A65U A69G | 0.09
33 | C38A A124G | 0.68
34 | A69G A117U | 0.64
35 | A107U A129U | 1.86
36 | G27C | 1.11
37 | G82C U119A | 2.14
38 | U9A U143A | 1.34
39 | U109C C133U | 1.37
40 | G88A U108C | 0.05
41 | A59G C123U | 0.05
42 | A94G A117G | 0.36
43 | U26A C120A | 1.12
44 | U45C G74U | 1.35
45 | U12G U47C | 1.04
46 | U14C C76U | 1.23
47 | G49U C98A | 0.04
48 | A30U U130C | 1.05

Row | Variant | self-cleavage
49 | C38U A142U | 0.32
50 | A67G A79U | 0.73
51 | A31G U102C | 0.35
52 | U104A U132A | 1.64
53 | A59G A107G | 0.09
54 | U23C U52A | 1.39
55 | G34A U143G | 1.64
56 | A92C U109C | 0
57 | U46C A69U | 0.07
58 | U52A U73C | 2.24
59 | U9C C113G | 1.75
60 | A57G C99A | 0.2
61 | G11A C28G | 1.12
62 | U115A U132C | 1.88
63 | C18U U104C | 0.23
64 | A6G U85A | 0
65 | U52A C116U | 1.18
66 | A42G C120U | 0.67
67 | A107G A121U | 1.28
68 | U100A U104A | 1.51
69 | U15A A117G | 1.24
70 | U14C U52A | 0.85
71 | U20A A64U | 0.36
72 | U46A A69U | 0.05

Row | Variant | self-cleavage
73 | U81G A129G | 1.48
74 | G55A U104C | 1.02
75 | U14C A94G | 0.31
76 | U47C A129G | 1.49
77 | A43G U109A | 1.46
78 | U1C U45C | 0.91
79 | G25A G105A | 1.27
80 | G7U A124G | 1.19
81 | U15C U39A | 1.56
82 | U39A U130C | 1.5
83 | A124G G127A | 1.15
84 | G40A A50U | 0.84
85 | C18U U62C | 0.08
86 | G35A A69G | 0.21
87 | U62G A141G | 0.08
88 | U62G C84G | 0.49
89 | U13C U134G | 1.04
90 | A78U U87G | 0.23
91 | G27A G54A | 0.59
92 | A121U A142G | 1.4
93 | U5C G34U | 0.82
94 | C120A G139U | 1.59
95 | C90G A136U | 0.04
96 | G72A U87A | 0.07

Row | Variant | self-cleavage
97 | A78G C145U | 1.28
98 | A6G A77G | 1.18
99 | C84U U100C | 0.21
100 | A24G U91C | 0.81
101 | A67G U112C | 0.39
102 | C120A U134C | 1.65
103 | A67U A121G | 0.15
104 | U15C A117U | 1.58
105 | U20C U62A | 0.11
106 | U45C C131A | 1.67
107 | U14G U115C | 0.79
108 | U47A A141G | 1.37
109 | U91C A124U | 0
110 | U13A A107U | 1.74
111 | U15G G114A | 0.87
112 | U5C A140U | 0.86
113 | U73A U85C | 0.1
114 | G4A U39A | 0.54
115 | U26C A94U | 0.28
116 | U14C A31U | 1.11
117 | U26A U73A | 1.24
118 | G11U A124U | 1.31
119 | G7A A30U | 0.92
120 | G72C A77G | 2.28

Row | Variant | self-cleavage
121 | C16U U52C | 1.47
122 | U1C G34U | 0.68
123 | U87A U91A | 0.12
124 | G88A A141G | 0.08
125 | U39A U73A | 1.76
126 | U62C A79G | 0.06
127 | C66U A140G | 0.04
128 | G36A U130C | 1.27
129 | A43U A107U | 1.81
130 | U91C U96C | 0.13
131 | C63U G74A | 0.22
132 | A121C A129U | 1.9
133 | A22G U87C | 0.28
134 | U13A U108C | 1.02
135 | A57U G125A | 0.04
136 | G41A C95U | 0.12
137 | U26C U62G | 0.07
138 | U47G A140G | 0.71
139 | A79U U119C | 2.41
140 | U81C U112A | 1.42
141 | C61U A124G | 0.04
142 | G36U U96C | 0.07
143 | U52C A69G | 0.11
144 | U26C G93C | 0.17

Row | Variant | self-cleavage
145 | U46A A57G | 0.54
146 | A22G G126A | 1.74
147 | U13C U100C | 1.4
148 | U15A G114U | 0.97
149 | U20C G54A | 0.65
150 | C3U G72A | 0.05
151 | G25A U100C | 1.81
152 | G53A U102A | 1.3
153 | G7U U47A | 1.2
154 | A107G C113U | 1.39
155 | U29C G89A | 0.06
156 | U73C U134C | 1.87
157 | G114U A140G | 0.91
158 | A94U C120G | 0.3
159 | C19U C120U | 1.25
160 | U45A U47C | 1.45
161 | A92U U143C | 0.99
162 | U12G U119C | 1.34
163 | G88A U112A | 0.08
164 | A78G A107U | 1.26
165 | A6U A142G | 0.81
166 | G33U A77C | 0.83
167 | A24U C120U | 0.79
